The values that follow come from publication PMC2734569, “Functional mapping of the fission yeast DNA polymerase δ B-subunit Cdc1 by site-directed and random pentapeptide insertion mutagenesis” (BMC Molecular Biology, 2009).

Assay in all cases: two-hybrid; LexA-Cdc1 bait (pBTM116 or pBTM116BN) with Gal4 activation domain-Cdc27 prey (pGAD2F-Cdc27) in S. cerevisiae CTY10-5d; ONPG liquid culture beta-galactosidase assay, mean of triplicates, as percent of wild-type Cdc1
Settings in all cases: partners not purified

In one assay the target is T1, Cdc1-E9 (Schizosaccharomyces pombe, UniProt P87324 1-462, Tyr-GlyGlyTyrProTyr-Gly).
T1 construct: Cdc1, S. pombe, with a pentapeptide inserted after residue 124; source: yeast two-hybrid fusion, in S. cerevisiae CTY10-5d
T1 sequence (looked up): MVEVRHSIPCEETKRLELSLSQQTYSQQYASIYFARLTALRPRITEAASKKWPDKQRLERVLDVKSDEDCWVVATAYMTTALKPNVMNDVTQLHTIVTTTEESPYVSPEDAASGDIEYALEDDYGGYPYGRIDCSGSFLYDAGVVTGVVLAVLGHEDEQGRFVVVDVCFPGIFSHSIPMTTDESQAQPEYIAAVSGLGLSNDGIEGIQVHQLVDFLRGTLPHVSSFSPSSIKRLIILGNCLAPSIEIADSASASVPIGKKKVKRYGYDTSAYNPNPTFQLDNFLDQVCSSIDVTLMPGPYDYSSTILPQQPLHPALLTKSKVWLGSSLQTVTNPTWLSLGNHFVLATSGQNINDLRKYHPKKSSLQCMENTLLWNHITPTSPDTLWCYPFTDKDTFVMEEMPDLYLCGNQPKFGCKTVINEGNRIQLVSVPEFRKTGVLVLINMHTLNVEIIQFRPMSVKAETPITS

The target in the next assay is T2, Cdc1-A2 (Schizosaccharomyces pombe, UniProt P87324 1-462, Gly293Ala).
T2 construct: Cdc1, S. pombe, point mutant; source: yeast two-hybrid fusion, in S. cerevisiae CTY10-5d
T2 sequence (looked up): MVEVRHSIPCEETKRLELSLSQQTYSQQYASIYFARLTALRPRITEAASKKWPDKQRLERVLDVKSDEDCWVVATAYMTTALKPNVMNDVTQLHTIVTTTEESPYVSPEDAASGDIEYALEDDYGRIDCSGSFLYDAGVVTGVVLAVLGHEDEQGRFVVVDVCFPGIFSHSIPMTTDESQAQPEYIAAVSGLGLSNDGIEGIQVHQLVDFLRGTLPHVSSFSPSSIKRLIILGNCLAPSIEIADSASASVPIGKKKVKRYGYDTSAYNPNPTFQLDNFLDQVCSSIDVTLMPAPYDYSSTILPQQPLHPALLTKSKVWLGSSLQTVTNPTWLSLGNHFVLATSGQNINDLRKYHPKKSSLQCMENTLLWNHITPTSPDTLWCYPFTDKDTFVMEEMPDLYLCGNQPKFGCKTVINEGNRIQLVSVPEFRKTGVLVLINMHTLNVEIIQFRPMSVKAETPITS

A further assay deals with T3, Cdc1-E1 (Schizosaccharomyces pombe, UniProt P87324 1-462, Ser-GlyValProGlnSer-Asp).
T3 construct: Cdc1, S. pombe, with a pentapeptide inserted after residue 66; source: yeast two-hybrid fusion, in S. cerevisiae CTY10-5d
T3 sequence (looked up): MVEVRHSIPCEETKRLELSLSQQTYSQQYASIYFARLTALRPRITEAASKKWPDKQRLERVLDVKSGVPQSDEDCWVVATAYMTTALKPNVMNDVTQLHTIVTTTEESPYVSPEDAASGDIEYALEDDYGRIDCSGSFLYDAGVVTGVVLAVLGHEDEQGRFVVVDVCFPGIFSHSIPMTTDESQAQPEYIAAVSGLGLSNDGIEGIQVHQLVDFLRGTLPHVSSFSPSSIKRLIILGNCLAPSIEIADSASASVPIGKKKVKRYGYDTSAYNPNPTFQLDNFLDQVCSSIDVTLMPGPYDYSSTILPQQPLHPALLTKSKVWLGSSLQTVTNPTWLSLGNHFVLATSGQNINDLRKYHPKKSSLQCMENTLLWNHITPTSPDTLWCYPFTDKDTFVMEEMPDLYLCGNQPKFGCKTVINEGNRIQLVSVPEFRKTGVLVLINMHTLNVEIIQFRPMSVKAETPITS

Another assay concerns the target T4, Cdc1-E2 (Schizosaccharomyces pombe, UniProt P87324 1-26).
T4 construct: Cdc1, S. pombe, truncated after amino acid 26 by a 16 nt insertion; residues coded by the 16 nt insertion before the stop codon (printed as GlyValProLysTer); source: yeast two-hybrid fusion, in S. cerevisiae CTY10-5d
T4 chain: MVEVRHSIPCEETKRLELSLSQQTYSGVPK

For a further assay, the target named is T5, Cdc1-A3 (Schizosaccharomyces pombe, UniProt P87324 1-462, Asp296Ala).
T5 construct: Cdc1, S. pombe, point mutant; source: yeast two-hybrid fusion, in S. cerevisiae CTY10-5d
T5 sequence (looked up): T2 sequence (looked up) with A293G, D296A

Numbering of substitutions follows the chain as printed. Some results are limits rather than exact numbers.

B1: Cdc27 (fission yeast DNA polymerase delta C-subunit) (natural protein, Schizosaccharomyces pombe, UniProt P30261 1-372, looked up)
chain: MEEWRNFLDIKVINESSLVTVDNLSLQLDISSEKAQEYLNMFYQGNDFLYPIYLIHGQPIDDEINLEIDEESQPISNFPVLQYILCDKSSLQEKQSRLKSGYKTVIFALSSAPLSDFDELLPAVYEIREKDVLYKKEDADKYGFIFNENSVPRVLKKAPSTHSPQLSVPSKTSTIDKTDTRSTEKTKGKDIFSNARNQKGNSSRKNKKAPLENHKEKEPLLPKEEKLSEQAKRERDDLKNIMQLEDESVSTTSVHDSEDDNLDSNNFQLEIGTEAKSAAPDEPQEIIKSVSGGKRRGKRKVKKYATTKDEEGFLVTKEEEVWESFSEDENISTGTSNVVRNKPTTVNIATKKKNTAQSKPQQKSIMSFFGKK
notes: DNA polymerase delta C-subunit Cdc27, S. pombe; prey plasmid pGAD2F-Cdc27; also called pGAD2F-Cdc27; source: yeast two-hybrid fusion, in S. cerevisiae CTY10-5d
In the case of B1, the “two-hybrid beta-galactosidase activity, % of wild-type Cdc1” value in the assay with Cdc1-E9 was under 1%; with Cdc1-A2, 19%; with Cdc1-E1, 1%; in the assay with Cdc1-E2 it was under 1%; in the assay with Cdc1-A3, 23%.
